Biological target: T1, biotinylated angiotensin II (biotin (position not given))
T1 construct: angiotensin II, the peptide hormone cut from angiotensinogen; Held by its biotin on the SA chip (BLI) or on streptavidin beads (pull-down); also called Bio-Ang II; bio-Ang II; source: bought: created by Beijing Fanbo Biological Chemical Co., Ltd
Test: BLI; Octet R8; biotinylated Ang II (1 ug/ml in 1x PBS) captured on an SA chip to a signal of 0.8 nm; P2X7R protein in SD buffer at 1, 0.5, 0.25 and 0.0625 uM
Conditions: both partners purified

B1: purified P2X7R protein (extracellular domain) (domain or fragment)
chain: SDKLYQRKEPLISSVHTKVKGVAEVTENVTEGGVTKLVHGIFDTADYTLPLQGNSFFVMTNYLKSEGQEQKLCPEYPSRGKQCHSDQGCIKGWMDPQSKGIQTGRCIPYDQKRKTCEIFAWCPAEEGKEAPRPALLRSAENFTVLIKNNIDFPGHNYTTRNILPGMNISCTFHKTWNPQCPIFRLGDIFQEIGENFTEVAVQGGIMGIEIYWDCNLDSWSHRCQPKYSFRRLDDKYTNESLFPGYNFRYAKYYKENGMEKRTLIKAFGVRFDILVFGTGGKF
Q: How did the Kd turn out when B1 was run?
A: 9.63 nM
